Assay results: the supplement of paper PMC9112550, “Optimization of the antimicrobial peptide Bac7 by deep mutational scanning” (BMC Biology, 2022)

System: Escherichia coli TOP10
Experiment: shrunken log2 fold change of peptide-encoding DNA abundance (4.5 h post-induction vs induction); higher = less antimicrobial activity (less host growth inhibition)
Details: time post-induction: 4.5 h; library: site-saturation at positions 5, 18, 19, 20
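Further: peptides expressed intracellularly from a pBAD plasmid library in pooled LB shake-flask culture, induced with 0.3% L-arabinose, DNA abundance read by NGS, three biological replicates, DESeq2 with apeglm shrinkage.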

Row | Sequence | shrunken log2 fold change
1 | RRIRCRPPRLPRPRPRPIEMPRP | -0.0735
2 | RRIRCRPPRLPRPRPRPIFSPRP | -0.0342
3 | RRIRCRPPRLPRPRPRPIFYPRP | -0.32
4 | RRIRCRPPRLPRPRPRPIIMPRP | -0.888
5 | RRIRCRPPRLPRPRPRPIIWPRP | -0.178
6 | RRIRCRPPRLPRPRPRPIMYPRP | -0.916
7 | RRIRCRPPRLPRPRPRPINAPRP | 0.695
8 | RRIRCRPPRLPRPRPRPINQPRP | -0.485
9 | RRIRCRPPRLPRPRPRPINSPRP | -0.389
10 | RRIRCRPPRLPRPRPRPIQEPRP | 0.0221
11 | RRIRCRPPRLPRPRPRPIQHPRP | -1.21
12 | RRIRCRPPRLPRPRPRPIQQPRP | -0.0847
13 | RRIRCRPPRLPRPRPRPIRVPRP | 0.161
14 | RRIRCRPPRLPRPRPRPITEPRP | -0.206
15 | RRIRCRPPRLPRPRPRPITNPRP | -0.449
16 | RRIRCRPPRLPRPRPRPIYIPRP | -0.43
17 | RRIRCRPPRLPRPRPRPIYRPRP | -0.318
18 | RRIRCRPPRLPRPRPRPKADPRP | -0.052
19 | RRIRCRPPRLPRPRPRPKCHPRP | 0.205
20 | RRIRCRPPRLPRPRPRPKCYPRP | -0.353
21 | RRIRCRPPRLPRPRPRPKDDPRP | 0.146
22 | RRIRCRPPRLPRPRPRPKDYPRP | -0.644
23 | RRIRCRPPRLPRPRPRPKEHPRP | -0.201
24 | RRIRCRPPRLPRPRPRPKESPRP | 0.0858
25 | RRIRCRPPRLPRPRPRPKFLPRP | -0.258

Row | Sequence | shrunken log2 fold change
26 | RRIRCRPPRLPRPRPRPKFWPRP | 0.449
27 | RRIRCRPPRLPRPRPRPKHDPRP | -0.0567
28 | RRIRCRPPRLPRPRPRPKHVPRP | -0.155
29 | RRIRCRPPRLPRPRPRPKLCPRP | 0.0418
30 | RRIRCRPPRLPRPRPRPKLIPRP | -0.0459
31 | RRIRCRPPRLPRPRPRPKNIPRP | -0.607
32 | RRIRCRPPRLPRPRPRPKNTPRP | -0.339
33 | RRIRCRPPRLPRPRPRPKPCPRP | 0.084
34 | RRIRCRPPRLPRPRPRPKPTPRP | 0.128
35 | RRIRCRPPRLPRPRPRPKPVPRP | 0.179
36 | RRIRCRPPRLPRPRPRPKRVPRP | 0.267
37 | RRIRCRPPRLPRPRPRPKRYPRP | -0.0053
38 | RRIRCRPPRLPRPRPRPKSTPRP | -0.137
39 | RRIRCRPPRLPRPRPRPKVSPRP | 0.0213
40 | RRIRCRPPRLPRPRPRPLAKPRP | 1.69
41 | RRIRCRPPRLPRPRPRPLAMPRP | 0.062
42 | RRIRCRPPRLPRPRPRPLCHPRP | -0.213
43 | RRIRCRPPRLPRPRPRPLDPPRP | -0.122
44 | RRIRCRPPRLPRPRPRPLFCPRP | -0.442
45 | RRIRCRPPRLPRPRPRPLHQPRP | -0.168
46 | RRIRCRPPRLPRPRPRPLHRPRP | 0.06
47 | RRIRCRPPRLPRPRPRPLLCPRP | -0.163
48 | RRIRCRPPRLPRPRPRPLLQPRP | 0.167
49 | RRIRCRPPRLPRPRPRPLQEPRP | 0.299
50 | RRIRCRPPRLPRPRPRPLQSPRP | 0.113

Row | Sequence | shrunken log2 fold change
51 | RRIRCRPPRLPRPRPRPLQYPRP | -0.0878
52 | RRIRCRPPRLPRPRPRPLRFPRP | 0.0668
53 | RRIRCRPPRLPRPRPRPLRSPRP | 0.482
54 | RRIRCRPPRLPRPRPRPLSAPRP | 0.00383
55 | RRIRCRPPRLPRPRPRPLSLPRP | -0.305
56 | RRIRCRPPRLPRPRPRPLSVPRP | -0.481
57 | RRIRCRPPRLPRPRPRPLVGPRP | 3.69
58 | RRIRCRPPRLPRPRPRPLVRPRP | 0.0749
59 | RRIRCRPPRLPRPRPRPLWYPRP | -0.307
60 | RRIRCRPPRLPRPRPRPLYGPRP | -0.914
61 | RRIRCRPPRLPRPRPRPLYRPRP | -1.14
62 | RRIRCRPPRLPRPRPRPMAGPRP | -0.0712
63 | RRIRCRPPRLPRPRPRPMCCPRP | -0.038
64 | RRIRCRPPRLPRPRPRPMCSPRP | -0.218
65 | RRIRCRPPRLPRPRPRPMFDPRP | -0.246
66 | RRIRCRPPRLPRPRPRPMFEPRP | -0.212
67 | RRIRCRPPRLPRPRPRPMFNPRP | -0.848
68 | RRIRCRPPRLPRPRPRPMGQPRP | 0.00321
69 | RRIRCRPPRLPRPRPRPMHVPRP | 0.0371
70 | RRIRCRPPRLPRPRPRPMIIPRP | -0.18
71 | RRIRCRPPRLPRPRPRPMIMPRP | -0.854
72 | RRIRCRPPRLPRPRPRPMKGPRP | 0.0113
73 | RRIRCRPPRLPRPRPRPMLMPRP | 0.0436
74 | RRIRCRPPRLPRPRPRPMMGPRP | 0.0355
75 | RRIRCRPPRLPRPRPRPMMRPRP | 0.0843

Row | Sequence | shrunken log2 fold change
76 | RRIRCRPPRLPRPRPRPMNNPRP | -0.537
77 | RRIRCRPPRLPRPRPRPMPAPRP | 0.849
78 | RRIRCRPPRLPRPRPRPMPRPRP | 0.0702
79 | RRIRCRPPRLPRPRPRPMPYPRP | -0.189
80 | RRIRCRPPRLPRPRPRPMRPPRP | 0.214
81 | RRIRCRPPRLPRPRPRPMSLPRP | -0.163
82 | RRIRCRPPRLPRPRPRPMSMPRP | -0.212
83 | RRIRCRPPRLPRPRPRPMTEPRP | -0.123
84 | RRIRCRPPRLPRPRPRPMWYPRP | -0.414
85 | RRIRCRPPRLPRPRPRPMYPPRP | -0.375
86 | RRIRCRPPRLPRPRPRPNAHPRP | -0.221
87 | RRIRCRPPRLPRPRPRPNAPPRP | 0.367
88 | RRIRCRPPRLPRPRPRPNASPRP | 0.0178
89 | RRIRCRPPRLPRPRPRPNDKPRP | -0.46
90 | RRIRCRPPRLPRPRPRPNDWPRP | -0.166
91 | RRIRCRPPRLPRPRPRPNEYPRP | -0.587
92 | RRIRCRPPRLPRPRPRPNGHPRP | -0.023
93 | RRIRCRPPRLPRPRPRPNGNPRP | -0.288
94 | RRIRCRPPRLPRPRPRPNHPPRP | -0.153
95 | RRIRCRPPRLPRPRPRPNISPRP | 0.039
96 | RRIRCRPPRLPRPRPRPNNMPRP | -0.745
97 | RRIRCRPPRLPRPRPRPNNYPRP | -0.81
98 | RRIRCRPPRLPRPRPRPNPPPRP | 0.557
99 | RRIRCRPPRLPRPRPRPNQIPRP | -0.367
100 | RRIRCRPPRLPRPRPRPNQVPRP | 0.017

Row | Sequence | shrunken log2 fold change
101 | RRIRCRPPRLPRPRPRPNRQPRP | -0.216
102 | RRIRCRPPRLPRPRPRPNRYPRP | -0.137
103 | RRIRCRPPRLPRPRPRPNSFPRP | -0.58
104 | RRIRCRPPRLPRPRPRPNSNPRP | -0.698
105 | RRIRCRPPRLPRPRPRPNSSPRP | -0.366
106 | RRIRCRPPRLPRPRPRPNVCPRP | -0.00167
107 | RRIRCRPPRLPRPRPRPNYLPRP | -0.797
108 | RRIRCRPPRLPRPRPRPPAPPRP | 1.11
109 | RRIRCRPPRLPRPRPRPPCCPRP | 0.021
110 | RRIRCRPPRLPRPRPRPPCPPRP | 0.487
111 | RRIRCRPPRLPRPRPRPPDSPRP | -0.0091
112 | RRIRCRPPRLPRPRPRPPEPPRP | 0.457
113 | RRIRCRPPRLPRPRPRPPFIPRP | -0.154
114 | RRIRCRPPRLPRPRPRPPHTPRP | 0.824
115 | RRIRCRPPRLPRPRPRPPLFPRP | 0.934
116 | RRIRCRPPRLPRPRPRPPNQPRP | 0.107
117 | RRIRCRPPRLPRPRPRPPPNPRP | 1.27
118 | RRIRCRPPRLPRPRPRPPRLPRP | 0.873
119 | RRIRCRPPRLPRPRPRPPTCPRP | 0.183
120 | RRIRCRPPRLPRPRPRPPTMPRP | 0.143
121 | RRIRCRPPRLPRPRPRPPVMPRP | 0.298
122 | RRIRCRPPRLPRPRPRPPVQPRP | 0.652
123 | RRIRCRPPRLPRPRPRPPWWPRP | 2.01
124 | RRIRCRPPRLPRPRPRPPYGPRP | -0.266
125 | RRIRCRPPRLPRPRPRPPYIPRP | -0.305

Row | Sequence | shrunken log2 fold change
126 | RRIRCRPPRLPRPRPRPQAGPRP | 0.109
127 | RRIRCRPPRLPRPRPRPQCRPRP | -0.421
128 | RRIRCRPPRLPRPRPRPQDPPRP | -0.0952
129 | RRIRCRPPRLPRPRPRPQDSPRP | -0.0482
130 | RRIRCRPPRLPRPRPRPQDTPRP | -0.313
131 | RRIRCRPPRLPRPRPRPQEIPRP | -0.0405
132 | RRIRCRPPRLPRPRPRPQFDPRP | -0.211
133 | RRIRCRPPRLPRPRPRPQFKPRP | -0.562
134 | RRIRCRPPRLPRPRPRPQFPPRP | -0.17
135 | RRIRCRPPRLPRPRPRPQFRPRP | -0.434
136 | RRIRCRPPRLPRPRPRPQGMPRP | 0.00583
137 | RRIRCRPPRLPRPRPRPQGVPRP | 0.0642
138 | RRIRCRPPRLPRPRPRPQIAPRP | -0.0699
139 | RRIRCRPPRLPRPRPRPQICPRP | 0.0827
140 | RRIRCRPPRLPRPRPRPQIPPRP | -0.126
141 | RRIRCRPPRLPRPRPRPQIRPRP | -0.332
142 | RRIRCRPPRLPRPRPRPQKDPRP | -0.202
143 | RRIRCRPPRLPRPRPRPQKPPRP | 0.0368
144 | RRIRCRPPRLPRPRPRPQMPPRP | -0.0931
145 | RRIRCRPPRLPRPRPRPQMRPRP | 0.611
146 | RRIRCRPPRLPRPRPRPQNMPRP | -0.78
147 | RRIRCRPPRLPRPRPRPQNRPRP | -0.111
148 | RRIRCRPPRLPRPRPRPQNYPRP | -0.485
149 | RRIRCRPPRLPRPRPRPQPHPRP | 0.067
150 | RRIRCRPPRLPRPRPRPQQYPRP | -0.709
